Assay results as given in the Human Domainome abundance scans (Beltran et al. 2025).

B1: Proto-oncogene vav, residues 782 to 842; numbered along this chain, P15498 (parent)
chain: KYFGTAKARYDFCARDRSELSLKEGDIIKILNKKGQQGWWRGEIYGRVGWFPANYVEEDYS

Variants of: B1
Experiment: abundance fitness (aPCA) (normalised: wild type 0, dead -1); higher = more abundant; growth selection in yeast, the domain comes from the species named
Details: Homo sapiens

Abundance fitness, by site and new letter:
D16: R -0.112, H 0.022, T -0.135, Q -0.108, Y -0.445, M -0.499, E -0.225, S 0, K -0.174, P -0.839, F -0.618, G -0.11, W -0.617, L -0.418, V -0.308
F12: R -0.365, I -0.536, E -1.01, M -0.827, K -1.01, H -0.029, Q -0.553, T -0.952, S -0.886, G -0.977, N -0.671, L -0.813, A -0.537, V -0.763, W -0.114, C -0.83, P -1.13
S18: K -0.239, Q -0.451, P -0.794, L -0.368, N 0.024, V -0.599, R -0.156, M -0.271, C -0.364, D -0.169, Y -0.158, G -0.194, T -0.068, E -0.277, A 0.064, W -0.258, H -0.096
E19: S -0.417, W -0.445, Q -0.103, A -1, C -0.502, D -0.654, R -1.08, Y -0.763, M 0, V -0.922, G -0.678, F -0.657, H -0.137, L -0.593, T -0.838, K -0.885
L22: F 0.176, P -0.971, I 0.016, A -0.494, Q -1.07, C -0.405, W -0.888, S -0.852, V -0.332, H -0.456, R -0.791, K -0.857, N -0.91, M -0.13
K7: Y -0.133, H -0.233, E -0.511, I -0.232, A -0.475, V -0.152, L -0.191, P -0.97, N -0.797, G -0.629, W -0.407, C -0.04, Q -0.093, M 0.006, D -0.766, S -0.381
R15: Q -0.26, C -0.444, V -0.471, Y -0.414, S -0.386, F -0.78, H -0.293, M -0.507, K -0.169, N -0.411, P -0.925, A -0.418, D -0.466, G -0.316, T -0.181
K23: P -0.907, Y -0.232, A -0.222, S -0.168, E -0.613, M -0.207, H -0.142, W -0.816, I -0.524, T -0.237, F -0.585, Q -0.221, N -0.576, L -0.585, G -0.815
A14: T -0.54, L -1.03, P -0.355, Q -0.541, C -0.83, K -0.692, N -0.742, E -0.873, V -0.889, H -0.562, S -0.237, W -0.649, F -0.804, M -0.931, Y -0.328
C13: P -0.178, E 0.12, M -0.119, L -0.058, H -0.131, Y -0.198, N 0.123, I -0.108, V 0.1, Q 0.098, D -0.28, F -0.006, S 0.028, A -0.063, G -0.285, W -0.087, T 0.146, R 0.025, K -0.201
D11: S -0.251, W -0.715, A -0.103, H -0.503, G -0.258, T -0.316, I -0.693, K -0.362, L -0.607, F -0.901, M -0.35, N 0.086, Q -0.363, C -0.264, P -0.284, Y -0.441, E -0.159, V -0.587
S21: A -0.26, Y -0.513, P -0.36, I -0.378, T -0.265, C -0.445, R -0.742, E -0.049, H -0.243, D 0.153, K -0.627, G -0.34, F -0.607, V -0.895, Q -0.594, L -0.653, N -0.333
A8: H -0.62, P -0.606, I -0.535, G -0.953, V -0.035, W -1.04, L -0.731, C -0.582, Y -0.708, E -0.745, D -0.864, T -0.756, Q -0.956, M -0.727, R -0.903, F -0.785
A6: C -0.115, E -0.904, N -0.905, V -0.214, T -0.883, K -0.725, S -0.654, F -0.694, M -0.733, H -0.677, P -0.832, I -0.852, Y -0.264, D -0.679
T5: H -0.094, A -0.084, R -0.209, Y -0.064, I -0.248, W -0.178, L -0.099, K -0.468, S -0.179, C -0.152, P -0.401, F 0.168, E -0.25, V -0.159, M -0.209
L20: Y -0.64, I -0.342, C -0.966, W -0.919, T -0.642, F -0.937, N -0.691, K -0.673, Q -1.05, M -0.756, S -0.825, E -0.852, G -0.927, R -0.883, A -0.768, V -0.577
E24: T -0.01, K -0.01, A 0.082, S -0.056, I -0.124, P -0.111, R 0.068, H -0.13, V 0.045, L -0.809, Q -0.072, N -0.118, D -0.361, G -0.262, C -0.091, M -0.009, F -0.575, W -0.92
R9: I -0.296, E -0.614, W -0.737, C -0.356, G -0.75, T -0.086, S -0.34, M -0.027, F 0.05, Y -0.821, K 0.072, P -0.972, N -0.282, H -0.505
Y10: G -0.177, Q 0.107, K 0.047, D -0.305, P -0.847, N -0.393, I -0.115, V -0.184, S 0.044, W -0.116, M 0.098, A 0.029, E -0.13, H 0.079, C -0.338, L -0.122
G4: Q -0.151, W -0.169, L -0.247, M -0.164, H -0.292, S -0.111, N -0.166, E -0.298, P 0.011, R -0.183, I -0.238, F -0.348, T -0.089, Y -0.213
R17: D -0.046, C 0.1, N 0.061, Y 0.107, H -0.076, E -0.027, M -0.06, P 0.031, Q -0.044, L 0.035, G -0.012, K 0.065, T -0.027, V -0.014, A 0.056, W -0.223, F -0.315
